Tests used:
SARS-CoV-2 NP = SARS-CoV-2 NP (SARS-CoV-2, UniProt P0DTC9 P0DTC9:1-419); assay: ELONA
HIV-1 p24 = HIV-1 p24 (Human immunodeficiency virus 1, UniProt P04591 P04591:133-363); assay: ELONA; antibody-antigen-aptamer sandwich with RPA readout
Ebola NP = Ebola NP (Ebola virus, UniProt P18272 P18272:1-739); assay: ELONA

B1: SARS-CoV-2 NP aptamer (ssDNA)
DNA: ATCCAGAGTGACGCAGCAAACCCAAGCAAACTACCTCTATACCCTTCGACCTTCATCATGGACACGGTGGCTTAGT
B1: binds (SARS-CoV-2 NP).

B2: HIV-1 p24 aptamer (ssDNA)
DNA: AGATACTGCCATTCATTGCATCGAGCACGCGACTGATGAGGATGGTCTAGTAGCTGGGGTCGAGTACTAAGCTATGTGTCGA
B2: binds (HIV-1 p24).

B3: Ebola NP aptamer (ssDNA)
DNA: GATGTGAGTGACGTGGATCGAGCGGATGTGAAGGCTGAAAGTGGCTTTGGGCGGTCGTAAGTGTCACAGAGCATGCAACAAGACC
B3: binds (Ebola NP).

From patent US20220243196, “[…] METHOD OF APTAMER AND IMMUNOASSAY USING THE APTAMER” (SB BIOSCIENCE CO., LTD., published 2022)
